The values that follow come from article PMC7531572.

The experiment has as its target mAb1 wild-type (monoclonal antibody IgG1) (human). Put plainly: SPR. For orientation: SPR reads the build-up and loss of mass on a sensor chip optically.

B1: recombinant mouse FcγRIV (receptor)
chain: GLQKAVVNLDPKWVRVLEEDSVTLRCQGTFSPEDNSIKWFHNESLIPHQDANYVIQSARVKDSGMYRCQTALSTISDPVQLEVHMGWLLLQTTKWLFQEGDPIHLRCHSWQNRPVRKVTYLQNGKGKKYFHENSELLIPKATHNDSGSYFCRGLIGHNNKSSASFRISLGDPGSPSMFPPWHQ
As to B1, the % of maximal binding response of wild-type antibody came out at 100%.
